Test results as given in patent US20240034801A1 (published 2024).

B1: Anti-PD-L1 mAb (antibody, V domains shown)
VH: EVQLVQSGAEVKKPGSSVKVSCKASGFNIEDTYIHWVRQAPGQGLEWMGRIDPANANTKYDPKFQGRVTITADTSTNTAYMELSSLRSEDTAVYYCGRGLGAWFAYWGQGTLVTVSS
VL: DIQMTQSPSSLSASVGDRVTITCKASQDVHTAVAWIQQKPGKSPKLLIYSASNRYTGVPSRFSGSGSGTDFTFTISSLQPEDIATYYCQQHYITPLTFGQGTKLEIK
B2: anti-PD-L1/anti-4-1BB heterodimeric antibody BH3120h (bispecific antibody)
heavy 1: not shown
light 1: DIQMTQSPSSLSASVGDRVTITCKASQDVHTAVAWIQQKPGKSPKLLIYSASNRYTGVPSRFSGSGSGTDFTFTISSLQPEDIATYYCQQHYITPLTFGQGTKLEIKRTVAAPSVFIFPPSDEQLKSGTASVVCLLNNFYPREAKVQWKVDNALQSGNSQESVTEQDSKDSTYSLSSTLTLSKADYEKHKVYACEVTHQGLSSPVTKSFNRGEC
heavy 2: QVQLVQSGAEVKKPGSSVKVSCKASGYTFTSYWINWVRQAPGQGLEWMGNIYPSDSYTNYNQKFKDRVTITADKSTSTAYMELSSLRSEDTAVYYCARLYYGSSPFDYWGQGTTVTVSSASTKGPSVFPLAPSSKSTSGGTAALGCLVKDYFPEPVTVSWNSGALTSGVHTFPAVLQSSGLYSLSSVVTVPSSSLGTQTYICNVNHKPSNTKVDKKVEPKSCDKTHTCPPCPAPELLGGPSVFLFPPKPKDTLMISRTPEVTCVVVDVSHEDPEVKFNWYVDGVEVHNAKTKPREEQYASTYRVVSVLTVLHQDWLNGKEYKCKVSNKALPAPIEKTISKAKGQPREPQVYTEPPSRDELTKNQVSLTCLVKGFYPSDIAVEWESNGQPENNYKTTPPVLDSDGSFFLLSVLTVDKSRWQQGNVFSCSVMHEALHNHYTQKSLSLSPGK
light 2: not shown
B3: Anti-4-1BB mAb (antibody, V domains shown)
VH: QVQLVQSGAEVKKPGSSVKVSCKASGYTFTSYWINWVRQAPGQGLEWMGNIYPSDSYTNYNQKFKDRVTITADKSTSTAYMELSSLRSEDTAVYYCARLYYGSSPFDYWGQGTTVTVSS
VL: DIQMTQSPSSLSASVGDRVTITCRASQDISNYLNWYQQKPGKVPKLLIYHTSRLHSGVPSRFSGSGSGTDFTLTISSLQPEDVATYYCQQGHTLPRTFGGGTKVEIK

Experiments:
[1] = biological target: recombinant human PD-L1 (Sino Biological Inc., catalog number 100 84-H08H) (human, UniProt Q9NZQ7 19-239); assay: ELISA; Fig. 8A
recombinant human PD-L1 (Sino Biological Inc., catalog number 100 84-H08H), sequence (Q9NZQ7 19-239): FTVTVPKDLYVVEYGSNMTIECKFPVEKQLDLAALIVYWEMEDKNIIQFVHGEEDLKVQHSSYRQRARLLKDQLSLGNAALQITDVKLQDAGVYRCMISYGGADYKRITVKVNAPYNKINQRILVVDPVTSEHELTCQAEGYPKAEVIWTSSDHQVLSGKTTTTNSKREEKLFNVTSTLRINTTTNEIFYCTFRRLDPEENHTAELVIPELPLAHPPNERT

[2] = biological target: T1, human PD-L1-Fc (ACROBiosystems, catalog number PD1-H5258) (human, UniProt Q9NZQ7 19-238); assay: competition ELISA; blocking PD-L1/CD80
T1 sequence (Q9NZQ7 19-238): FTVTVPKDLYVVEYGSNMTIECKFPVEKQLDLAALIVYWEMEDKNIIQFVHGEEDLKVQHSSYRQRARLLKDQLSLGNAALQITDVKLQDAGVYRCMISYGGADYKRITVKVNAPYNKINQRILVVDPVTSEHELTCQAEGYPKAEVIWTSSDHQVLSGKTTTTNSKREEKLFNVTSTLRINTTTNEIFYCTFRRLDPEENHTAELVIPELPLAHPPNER

[3] = biological target: T1, human PD-L1-Fc (ACROBiosystems, catalog …); assay: competition ELISA; blocking PD-L1/PD-1
[4] = biological target: recombinant human 4-1BB (Sino Biological Inc., catalog number 10041-H08H) (human, UniProt Q07011 24-186); assay: ELISA; Fig. 8B
recombinant human 4-1BB (Sino Biological Inc., catalog number 10041-H08H), sequence (Q07011 24-186): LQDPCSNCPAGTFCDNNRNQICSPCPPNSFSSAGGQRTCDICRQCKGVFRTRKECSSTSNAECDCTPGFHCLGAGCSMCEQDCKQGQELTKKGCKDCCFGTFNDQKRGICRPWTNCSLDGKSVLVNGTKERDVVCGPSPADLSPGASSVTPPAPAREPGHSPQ

[5] = biological target: 4-1BB on GS-H2/4-1BB cells (purchased from GenScript) (UniProt Q07011 24-255); assay: FACS binding; Fig. 8C, GS-H2/4-1BB cells
4-1BB on GS-H2/4-1BB cells (purchased from GenScript), sequence (Q07011 24-255): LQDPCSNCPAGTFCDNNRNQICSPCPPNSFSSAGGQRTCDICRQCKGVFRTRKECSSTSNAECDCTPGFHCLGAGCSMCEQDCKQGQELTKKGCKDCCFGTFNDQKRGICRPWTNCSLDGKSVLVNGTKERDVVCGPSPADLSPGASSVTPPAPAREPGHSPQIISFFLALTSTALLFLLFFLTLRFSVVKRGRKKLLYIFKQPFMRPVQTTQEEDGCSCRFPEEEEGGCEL

Binder	EC50 [1]	EC50 [2]	EC50 [3]	EC50 [4]	EC50 [5]
B1	102 pM	656 pM	884 pM	–	–
B2	345 pM	1720 pM	4860 pM	4020 pM	396 pM
B3	–	–	–	45 pM	1280 pM
